Laboratory results taken from article doi:10.1101/2024.05.27.596032 (bioRxiv, 2024).
“And” between values parts separate entries of the source, which are not always exact repeats. Equal entries are not always repeated. Where two headings read alike, the source gives them in different places.

B1: Streptococcus pneumoniae NrdR (natural protein, Streptococcus pneumoniae TIGR4, UniProt P67318 1-157, looked up)
chain: MRCPKCGATKSSVIDSRQAEEGNTIRRRRECDECQHRFTTYERVEERTLVVVKKDGTREQFSRDKIFNGIIRSAQKRPVSSDEINMVVNRIEQKLRGRNENEIQSEDIGSLVMEELAELDEITYVRFASVYRSFKDVSELESLLQQITQSSKKKKER

Key:
Assay in all cases: SEC
[1] = biological target: Listeria monocytogenes NrdR (Listeria monocytogenes serotype 1/2a str, S10403S) (UniProt B8DHI6)
[2] = biological target: Listeria monocytogenes NrdR (Listeria monocytogenes serotype 1/2a str, S10403S) (UniProt B8DHI6); remark: listed apart in the source
[3] = biological target: Listeria monocytogenes NrdR (Listeria monocytogenes serotype 1/2a str, S10403S) (UniProt B8DHI6); remark: listed apart in the source
[4] = biological target: Listeria monocytogenes NrdR (Listeria monocytogenes serotype 1/2a str, S10403S) (UniProt B8DHI6); remark: listed apart in the source
[5] = biological target: Listeria monocytogenes NrdR (Listeria monocytogenes serotype 1/2a str, S10403S) (UniProt B8DHI6); remark: listed apart in the source
[6] = biological target: Listeria monocytogenes NrdR (Listeria monocytogenes serotype 1/2a str, S10403S) (UniProt B8DHI6); remark: listed apart in the source
[7] = biological target: the molecule itself

| Molecule | stoichiometry N [1] | stoichiometry N [2] | stoichiometry N [3] | stoichiometry N [4] | stoichiometry N [5] | stoichiometry N [6] | stoichiometry N [7] |
| --- | --- | --- | --- | --- | --- | --- | --- |
| Listeria monocytogenes NrdR (from UniProt B8DHI6 1-154) (natural protein) | 4 | 8 | 4 | 2 | 4 | 4 |  |
| B1 |  |  |  |  |  |  | 2 and 4 |
